Test results reported in patent publication US20230321209A1.

Molecular target: human Adenovirus capsid
Assay: SPR, peptide on adenovirus capsid (FIGS. 13A-13B)

Row | Binder | list of priority (rank by SPR binding, high binders listed first) [rank]
1 | KKKKKKKKKGLVAEWFLAYILFTRFFYVL [R1AB_GLVAE SARS-CoV2 peptide with 9K poly-lysine tail] | 1
2 | KKKKKKKKKGLEAPFLYLYALVYFLQSINFV [AP3A_GLEAP SARS-CoV2 peptide with 9K poly-lysine tail] | 2
3 | KKKKKKKVTLVFLFVAAIFYLITPVHVMSK [R1AB_KVTLV SARS-CoV2 peptide with 6K poly-lysine tail] | 3
4 | KKKKKKKKKKLIFLWLLWPVTLACFVLAAV [VME1_KLIFL SARS-CoV2 peptide with 9K poly-lysine tail] | 4
5 | KKKKKKLPKEITVATSRTLSYYKLGA [VME1_LPKEI SARS-CoV2 peptide with 6K poly-lysine tail] | 6
6 | KKKKKKAQFAPSASAFFGMSRIGMEV [NCAP_AQFAP SARS-CoV2 peptide with 6K poly-lysine tail] | 7
7 | KKKKKKALALLLLDRLNQLESKMSGK [NCAP_ALALL SARS-CoV2 peptide with 6K poly-lysine tail] | 9
